In paper PMC2631628:

Legend:
hnRNP A1 [1] = target: hnRNP A1 (UniProt P09651); experiment: competition; settings: Footprinting: RNA refolded in 2 mM MgCl2, 80 mM NaCl, 20 mM Tris-HCl pH 7.2; probing at 37 C for 10 min; EMSA and pull-down buffers not in the material
hnRNP A1 [2] = target: hnRNP A1 (UniProt P09651); experiment: footprinting (Pb(II)); settings: Footprinting: RNA refolded in 2 mM MgCl2, 80 mM NaCl, 20 mM Tris-HCl pH 7.2; probing at 37 C for 10 min; EMSA and pull-down buffers not in the material

hnRNP A1, sequence (P09651 whole entry): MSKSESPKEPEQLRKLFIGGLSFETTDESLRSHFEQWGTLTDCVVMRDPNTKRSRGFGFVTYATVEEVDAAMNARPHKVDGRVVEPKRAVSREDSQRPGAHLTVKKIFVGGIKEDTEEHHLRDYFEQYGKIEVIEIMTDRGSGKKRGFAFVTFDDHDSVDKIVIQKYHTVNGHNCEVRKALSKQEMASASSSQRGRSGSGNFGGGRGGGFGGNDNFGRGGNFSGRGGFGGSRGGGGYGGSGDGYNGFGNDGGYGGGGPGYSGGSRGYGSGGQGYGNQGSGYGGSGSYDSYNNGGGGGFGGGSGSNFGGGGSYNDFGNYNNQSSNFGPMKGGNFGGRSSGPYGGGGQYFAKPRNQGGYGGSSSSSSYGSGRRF

Q: For “GGCGUGCAGGGCCUGCUGAUGUUGAGUGCUUUUUGUUCUAAGGUGCAUCUAGUGCAGAUAGUGAAGUAGAUUAGCAUCUACUGCCCUAAGUGCUCCUUCUGGCAUAAGAAGUUAUGUAUUCAUCCAAUAAUUC [pri-miR-18a]”, which binding (hnRNP A1 [1]) is on record?
A: binds

Q: For “GGUGUUCUAAGGUGCAUCUAGUGCAGAUAGUGAAGUAGAUUAGCAUCUACUGCCCUAAGUGCUCCUUCUGGCA [pri-miR-18a_73nt]”, which binding (hnRNP A1 [2]) is on record?
A: binds
